Data as given in the supplement of paper PMC7125110.
± gives the standard error. For part of these data: This sample holds only a part of the variants without activity.

B1: glmS ribozyme (parent)
chain: AUAAAAGCGCCAGAACUACAGAAAUGUAGUUGACGAGGAGGAGGUUUAUCGAAUUUUCGGCGGAUGCCUCCAAA

Experiments:
Conditions in all cases: with glucosamine-6-phosphate
glucosamine-6-phosphate [1] = variants of: B1; test: kcat; higher = faster cleavage; RNA array
Procedure, shortened: (§1)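 Glucosamine-6-phosphate, from 40 μM to 10 mM in HEPES/KCl/Mg(OAc)2 buffer, was flowed over sequenced MiSeq chips carrying barcoded ribozyme variants transcribed in situ by E. coli RNA polymerase. A hybridised Cy3 probe tracked the variants at 37 °C as tiles were imaged over ~14 h. kobs, kcat and KM were obtained by fitting normalised per-tile medians to exponential decays and then applying weighted Michaelis–Menten fits across concentrations.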

glucosamine-6-phosphate [2] = variants of: B1; test: KM; higher = weaker cofactor use; RNA array
Procedure, shortened: as §1

glucosamine-6-phosphate [3] = variants of: B1; test: self-cleavage kobs at 2500 uM GlcN6P; higher = faster cleavage; RNA array
Procedure, shortened: as §1

glucosamine-6-phosphate [4] = variants of: B1; test: self-cleavage kobs at 10000 uM GlcN6P; higher = faster cleavage; RNA array
Procedure, shortened: as §1

glucosamine-6-phosphate [5] = variants of: B1; test: self-cleavage kobs at 640 uM GlcN6P; higher = faster cleavage; RNA array
Procedure, shortened: as §1

glucosamine-6-phosphate [6] = variants of: B1; test: self-cleavage kobs at 160 uM GlcN6P; higher = faster cleavage; RNA array
Procedure, shortened: as §1

glucosamine-6-phosphate [7] = variants of: B1; test: self-cleavage kobs at 40 uM GlcN6P; higher = faster cleavage; RNA array
Procedure, shortened: as §1

| Variant | kcat (glucosamine-6-phosphate [1]) | KM (glucosamine-6-phosphate [2]) | self-cleavage kobs at 2500 uM GlcN6P (glucosamine-6-phosphate [3]) | self-cleavage kobs at 10000 uM GlcN6P (glucosamine-6-phosphate [4]) | self-cleavage kobs at 640 uM GlcN6P (glucosamine-6-phosphate [5]) | self-cleavage kobs at 160 uM GlcN6P (glucosamine-6-phosphate [6]) | self-cleavage kobs at 40 uM GlcN6P (glucosamine-6-phosphate [7]) |
| --- | --- | --- | --- | --- | --- | --- | --- |
| C16G G32C | 0.000124 ± 1.6e-05 s⁻¹ | 4550 ± 1400 µM | 4.67e-05 ± 9.8e-06 s⁻¹ | 8.49e-05 ± 1e-05 s⁻¹ | – | – | – |
| C16A G66U | 0.000122 ± 3.2e-05 s⁻¹ | 8450 ± 4000 µM | 2.61e-05 ± 1.2e-05 s⁻¹ | 6.63e-05 ± 1.5e-05 s⁻¹ | – | – | – |
| C16A U46G | 0.000285 ± 5.2e-05 s⁻¹ | 1720 ± 670 µM | 0.000212 ± 3e-05 s⁻¹ | 0.000222 ± 3.3e-05 s⁻¹ | 7.33e-05 ± 1.3e-05 s⁻¹ | – | – |
| C16A U31A | 0.0016 ± 0.00038 s⁻¹ | 3990 ± 1400 µM | 0.000585 ± 0.00016 s⁻¹ | 0.00119 ± 0.00027 s⁻¹ | 0.000194 ± 5.1e-05 s⁻¹ | 8.65e-05 ± 2.4e-05 s⁻¹ | – |
| C16G A52G | 0.000339 ± 0.0001 s⁻¹ | – | 0.000119 ± 1.9e-05 s⁻¹ | 0.000262 ± 4.1e-05 s⁻¹ | 7.43e-05 ± 2.3e-05 s⁻¹ | – | – |
| C16G U45A | 0.0107 ± 0.0033 s⁻¹ | 2340 ± 1100 µM | 0.00423 ± 0.00082 s⁻¹ | 0.0101 ± 0.0013 s⁻¹ | 0.00226 ± 0.00044 s⁻¹ | 0.00048 ± 0.00013 s⁻¹ | 0.000245 ± 3.1e-05 s⁻¹ |
| C16G G40A | 0.000334 ± 0.00011 s⁻¹ | – | 0.000473 ± 0.00011 s⁻¹ | 0.00027 ± 5.7e-05 s⁻¹ | 0.000114 ± 2.6e-05 s⁻¹ | – | – |
| C16G G32A C68U | 0.000119 ± 1.4e-05 s⁻¹ | – | 9.95e-05 ± 3.8e-05 s⁻¹ | 0.000115 ± 1.8e-05 s⁻¹ | 0.000129 ± 3.9e-05 s⁻¹ | – | – |
| C16A A64U | < 1e-05 s⁻¹ | – | – | – | – | < 1e-05 s⁻¹ | < 1e-05 s⁻¹ |
| C16G C71U | 0.00252 ± 0.00053 s⁻¹ | 956 ± 300 µM | 0.00228 ± 0.00066 s⁻¹ | 0.00248 ± 0.00036 s⁻¹ | 0.000865 ± 0.00012 s⁻¹ | 0.000323 ± 5.6e-05 s⁻¹ | 0.000132 ± 1.8e-05 s⁻¹ |
| C16A C68A | 1.91e-05 ± 5.8e-06 s⁻¹ | – | – | – | – | – | – |
| C16A C50A U69C | 3.42e-05 ± 1.5e-05 s⁻¹ | – | 5.24e-05 ± 2.3e-05 s⁻¹ | – | – | – | – |
| C16G G59A C71G | 1.74e-05 ± 4.8e-06 s⁻¹ | – | – | – | – | – | – |
| A15U U47A | 0.00433 ± 0.0014 s⁻¹ | 1960 ± 890 µM | 0.00263 ± 0.00057 s⁻¹ | 0.00356 ± 0.0009 s⁻¹ | 0.000846 ± 0.00036 s⁻¹ | 0.000273 ± 6.7e-05 s⁻¹ | 0.00015 ± 3.6e-05 s⁻¹ |
| A15U G44A | 3.69e-05 ± 5.2e-07 s⁻¹ | 2790 ± 140 µM | – | 2.88e-05 ± 1.1e-05 s⁻¹ | – | – | – |
| C16U A42G | 0.0195 ± 0.0085 s⁻¹ | – | 0.00906 ± 0.0027 s⁻¹ | 0.0355 ± 0.0076 s⁻¹ | 0.00699 ± 0.0019 s⁻¹ | 0.00221 ± 0.00057 s⁻¹ | 0.000669 ± 0.0001 s⁻¹ |
| C16G A33G | < 1e-05 s⁻¹ | – | – | – | – | – | < 1e-05 s⁻¹ |
| A15U G38U | < 1e-05 s⁻¹ | – | – | – | – | < 1e-05 s⁻¹ | < 1e-05 s⁻¹ |
| A15U G51C | < 1e-05 s⁻¹ | – | – | – | < 1e-05 s⁻¹ | – | < 1e-05 s⁻¹ |

| Variant | kcat (glucosamine-6-phosphate [1]) | KM (glucosamine-6-phosphate [2]) | self-cleavage kobs at 2500 uM GlcN6P (glucosamine-6-phosphate [3]) | self-cleavage kobs at 10000 uM GlcN6P (glucosamine-6-phosphate [4]) | self-cleavage kobs at 640 uM GlcN6P (glucosamine-6-phosphate [5]) | self-cleavage kobs at 160 uM GlcN6P (glucosamine-6-phosphate [6]) | self-cleavage kobs at 40 uM GlcN6P (glucosamine-6-phosphate [7]) |
| --- | --- | --- | --- | --- | --- | --- | --- |
| C16A C67U | 0.000302 ± 4.6e-05 s⁻¹ | 782 ± 280 µM | 0.000286 ± 3.2e-05 s⁻¹ | 0.000261 ± 3.1e-05 s⁻¹ | 0.000122 ± 1.3e-05 s⁻¹ | 6.4e-05 ± 1.4e-05 s⁻¹ | – |
| C16G G51C | < 1e-05 s⁻¹ | – | – | – | – | – | < 1e-05 s⁻¹ |
| C16G A64G | 0.00475 ± 0.0023 s⁻¹ | – | 0.00156 ± 0.00036 s⁻¹ | 0.00584 ± 0.00071 s⁻¹ | 0.00103 ± 0.00014 s⁻¹ | 0.000468 ± 0.00021 s⁻¹ | 0.000127 ± 1.8e-05 s⁻¹ |
| C16A U57A | 2.09e-05 ± 4.3e-06 s⁻¹ | – | – | – | – | < 1e-05 s⁻¹ | < 1e-05 s⁻¹ |
| C16A G41A | 4e-05 ± 4.5e-07 s⁻¹ | 806 ± 51 µM | – | 3.7e-05 ± 1.1e-05 s⁻¹ | – | – | – |
| C16G G66U | 0.000189 ± 5.3e-06 s⁻¹ | 2380 ± 200 µM | 9.99e-05 ± 1.6e-05 s⁻¹ | 0.000152 ± 1.3e-05 s⁻¹ | 3.85e-05 ± 1.1e-05 s⁻¹ | – | – |
| C16A G59A | 1.02e-05 ± 3.6e-06 s⁻¹ | – | – | – | – | – | – |
| C16G C50G | 4.79e-05 ± 1.9e-05 s⁻¹ | – | 6.05e-05 ± 1.4e-05 s⁻¹ | – | – | – | – |
| C16A A48U | < 1e-05 s⁻¹ | 163 ± 44 µM | – | – | – | < 1e-05 s⁻¹ | < 1e-05 s⁻¹ |
| A15U G32C | 0.000139 ± 7.8e-06 s⁻¹ | 2550 ± 370 µM | 6.49e-05 ± 8.6e-06 s⁻¹ | 0.000112 ± 9.6e-06 s⁻¹ | 3.14e-05 ± 7.2e-06 s⁻¹ | – | – |
| C16G A39C | 0.000798 ± 6e-05 s⁻¹ | 2400 ± 310 µM | 0.000427 ± 6.6e-05 s⁻¹ | 0.000629 ± 7.2e-05 s⁻¹ | 0.000184 ± 2.9e-05 s⁻¹ | 4.38e-05 ± 9.6e-06 s⁻¹ | – |
| A15U U69G | 5.2e-05 ± 1.9e-05 s⁻¹ | – | 6.85e-05 ± 2.1e-05 s⁻¹ | – | – | 4.3e-05 ± 1.3e-05 s⁻¹ | – |
| A15U U69A | 7.22e-05 ± 1.3e-05 s⁻¹ | – | 8.33e-05 ± 1e-05 s⁻¹ | 5.39e-05 ± 1.2e-05 s⁻¹ | 4.48e-05 ± 1.1e-05 s⁻¹ | – | – |
| C16A U46G A48G C50U C67A | 1.04e-05 ± 4.5e-06 s⁻¹ | – | – | – | – | – | – |
| A15U C67A | 0.00148 ± 0.00015 s⁻¹ | 1700 ± 250 µM | 0.000861 ± 0.00014 s⁻¹ | 0.00127 ± 0.00019 s⁻¹ | 0.000447 ± 9.2e-05 s⁻¹ | 0.000119 ± 1.6e-05 s⁻¹ | 4.29e-05 ± 1e-05 s⁻¹ |
| C16G U65G | 0.00228 ± 0.0011 s⁻¹ | – | 0.000455 ± 0.00013 s⁻¹ | 0.00143 ± 0.00036 s⁻¹ | 0.000149 ± 6.2e-05 s⁻¹ | 6.11e-05 ± 1.6e-05 s⁻¹ | – |
| C16A U30G | 0.000341 ± 4.6e-05 s⁻¹ | 2530 ± 560 µM | 0.000175 ± 2.3e-05 s⁻¹ | 0.000243 ± 9.7e-05 s⁻¹ | 6.82e-05 ± 1.2e-05 s⁻¹ | – | – |
| A15U C68G | 4.37e-05 ± 1e-05 s⁻¹ | – | 4.48e-05 ± 1e-05 s⁻¹ | – | 2.81e-05 ± 1.4e-05 s⁻¹ | – | – |
